Data reported in US20260144882A1 (BIO THERA SOLUTIONS, published 2026).
Several values for one entry are separate records, joined by “and”; a condition that tells them apart may be missing. Equal entries are not always repeated.

T1: human Nectin-4 extracellular antigen hNectin-4-His (human, UniProt Q96NY8 32-349)
T1 construct: C-terminal 8xHis tag included
T1 sequence: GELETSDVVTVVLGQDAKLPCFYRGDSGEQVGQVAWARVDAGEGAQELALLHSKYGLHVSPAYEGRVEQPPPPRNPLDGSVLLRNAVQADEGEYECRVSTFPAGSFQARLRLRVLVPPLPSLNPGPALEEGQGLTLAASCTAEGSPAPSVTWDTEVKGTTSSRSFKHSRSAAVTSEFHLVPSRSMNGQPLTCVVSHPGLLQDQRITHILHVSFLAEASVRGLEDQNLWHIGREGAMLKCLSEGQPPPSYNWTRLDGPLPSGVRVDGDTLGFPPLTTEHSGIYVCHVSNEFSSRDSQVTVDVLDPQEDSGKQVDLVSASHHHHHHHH

T2: hNectin-1 (ACRO, PV1-H5223) (human, UniProt Q15223 31-334)
T2 construct: bought; construct not described
T2 sequence (looked up): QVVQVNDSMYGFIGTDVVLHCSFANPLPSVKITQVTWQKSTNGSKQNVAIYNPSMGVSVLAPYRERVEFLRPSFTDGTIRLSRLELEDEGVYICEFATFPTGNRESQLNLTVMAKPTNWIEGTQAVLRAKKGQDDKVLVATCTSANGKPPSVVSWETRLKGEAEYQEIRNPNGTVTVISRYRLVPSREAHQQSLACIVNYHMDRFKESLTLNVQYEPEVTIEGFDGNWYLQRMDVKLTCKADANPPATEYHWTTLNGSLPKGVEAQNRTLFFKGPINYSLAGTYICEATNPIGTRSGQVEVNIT

T3: mouse mNectin-4 protein (ACRO, NE4-M52H3) (mouse, UniProt Q8R007 31-347)
T3 construct: bought; construct not described; also called mouse Nectin-4
T3 sequence (looked up): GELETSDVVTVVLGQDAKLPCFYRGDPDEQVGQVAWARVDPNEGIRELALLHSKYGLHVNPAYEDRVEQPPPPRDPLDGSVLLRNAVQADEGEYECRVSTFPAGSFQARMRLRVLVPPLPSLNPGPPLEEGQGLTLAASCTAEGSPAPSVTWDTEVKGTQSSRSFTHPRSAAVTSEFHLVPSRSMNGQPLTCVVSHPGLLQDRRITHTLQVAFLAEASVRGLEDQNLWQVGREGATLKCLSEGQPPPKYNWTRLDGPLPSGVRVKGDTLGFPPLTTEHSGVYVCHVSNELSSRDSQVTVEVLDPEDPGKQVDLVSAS

T4: monkey cNectin-4 protein (ACRO, NE4-C52H4) (cynomolgus monkey, UniProt A0A2K5WES1 32-349)
T4 construct: bought; construct not described; also called cynomolgus monkey Nectin-4
T4 sequence: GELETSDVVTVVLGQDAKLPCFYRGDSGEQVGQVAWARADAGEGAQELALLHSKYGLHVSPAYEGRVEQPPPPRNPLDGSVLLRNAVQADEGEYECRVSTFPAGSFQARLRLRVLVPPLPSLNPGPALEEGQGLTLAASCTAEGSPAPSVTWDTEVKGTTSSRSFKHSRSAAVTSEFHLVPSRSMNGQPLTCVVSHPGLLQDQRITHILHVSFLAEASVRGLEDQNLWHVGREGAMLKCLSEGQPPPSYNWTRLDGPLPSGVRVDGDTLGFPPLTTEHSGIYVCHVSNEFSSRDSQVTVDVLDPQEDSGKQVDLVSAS

T5: human Nectin-4, full length on cells (human, UniProt Q96NY8 32-510)
T5 construct: whole, on cells; T-47D cells positive for Nectin-4 expression; also called Nectin-4 on T-47D cells; CHO-Nectin-4
T5 sequence (looked up): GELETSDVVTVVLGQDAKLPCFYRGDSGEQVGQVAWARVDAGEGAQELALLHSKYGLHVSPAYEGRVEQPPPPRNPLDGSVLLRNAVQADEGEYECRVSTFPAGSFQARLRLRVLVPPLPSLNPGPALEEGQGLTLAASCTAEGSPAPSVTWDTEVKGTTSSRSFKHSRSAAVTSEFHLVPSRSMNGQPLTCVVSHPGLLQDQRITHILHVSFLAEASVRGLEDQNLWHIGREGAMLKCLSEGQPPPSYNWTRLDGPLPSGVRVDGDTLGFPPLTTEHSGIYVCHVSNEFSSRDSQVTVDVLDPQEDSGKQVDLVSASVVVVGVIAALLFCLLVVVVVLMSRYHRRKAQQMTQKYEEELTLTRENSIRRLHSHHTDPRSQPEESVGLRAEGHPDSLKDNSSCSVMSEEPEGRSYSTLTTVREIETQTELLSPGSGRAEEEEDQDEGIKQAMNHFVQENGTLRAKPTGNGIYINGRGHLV

B1: antibody 1G8 (antibody, human IgG1, kappa, V domains shown)
VH: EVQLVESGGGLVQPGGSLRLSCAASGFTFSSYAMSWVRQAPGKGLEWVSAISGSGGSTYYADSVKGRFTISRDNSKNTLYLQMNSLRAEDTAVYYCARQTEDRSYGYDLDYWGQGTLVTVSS
VL: DIQMTQSPSSLSASVGDRVTITCRASQGISSYLAWYQQKPGKAPKLLIYAASSLQSGVPSRFSGSGSGTDFTLTISSLQPEDFATYYCQQHYTTPPTFGQGTKVEIKR
B2: antibody 1F3 (antibody, human IgG1, kappa, V domains shown)
VH: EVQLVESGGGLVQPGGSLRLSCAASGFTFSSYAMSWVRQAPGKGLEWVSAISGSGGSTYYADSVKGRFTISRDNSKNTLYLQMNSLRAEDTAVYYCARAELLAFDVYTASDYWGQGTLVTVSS
VL: B1 VL
B3: antibody 10F4 (antibody, human IgG1, kappa, V domains shown)
VH: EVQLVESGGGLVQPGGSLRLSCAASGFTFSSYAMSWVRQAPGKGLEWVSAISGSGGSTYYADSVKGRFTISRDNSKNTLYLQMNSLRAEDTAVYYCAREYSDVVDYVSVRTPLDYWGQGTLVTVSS
VL: B1 VL

Legend:
[1] = target: T1, human Nectin-4 extracellular antigen …; assay: SPR, antibody on Protein A chip, hNectin-4-His analyte, 1:1 fit
From the text: In this study, the affinity of the antibodies for the human Nectin-4 extracellular antigen was detected by surface plasmon resonance (SPR) technique (BIAcore: GE Healthcare, T200).

[2] = target: T1, human Nectin-4 extracellular antigen …; assay: ELISA, coated hNectin-4-His
From the text: (§1) The binding activity of the antibodies was detected by ELISA.

[3] = target: T2, hNectin-1 (ACRO, PV1-H5223); assay: ELISA, coated antigen
From the text: as §1
In this assay, the binding of different antibodies to human Nectin-4 homologous proteins hNectin-1 (ACRO, PV1-H5223), hNectin-2 (ACRO, PV2-H52E2), hNectin-3 (ACRO, PV3-H52E4), and hNectin-4-His was detected by ELISA to determine the specificity of the antibodies. For the methodology and procedures, see Example 4. Antigens of interest ([…]) were immobilized; after blocking, serially diluted antibodies (2-fold serially diluted from […]) were added, and HRP-labeled anti-human-Kappa secondary antibody was added for chromogenic reaction.

[4] = target: T3, mouse mNectin-4 protein (ACRO, …); assay: ELISA, coated antigen
[5] = target: T4, monkey cNectin-4 protein (ACRO, …); assay: ELISA, coated antigen
[6] = target: T1, human Nectin-4 extracellular antigen …; assay: ELISA, coated antigen
[7] = target: T5, human Nectin-4, full length on cells; assay: flow cytometry on T-47D cells
Description: In this study, the binding activity of different antibodies to T-47D cells positive for Nectin-4 expression was detected by FACS, and the EC₅₀ for the binding of antibodies to the cells was analyzed by a four-parameter method. The procedures are briefly described as follows: T-47D cells (the Cell Bank of Chinese Academy of Sciences, TCHu 87) were trypsinized; the antibodies were serially diluted and co-incubated with T-47D cells at 4° C. for 0.5-1 h, followed by the addition of the secondary PE-labeled anti-human Fc antibody (Invitrogen, 12-4998-82); the signal intensity of red fluorescence was detected on a flow cytometer, and curves were plotted using Graphpad Prism and the EC₅₀ was calculated.

Binder	Kd [1]	koff [1]	kon [1]	EC50 [2]	binding result [3]	EC50 [4]	EC50 [5]	EC50 [6]	EC50 [7]
B1	4.97 nM	0.003 s⁻¹	605000 M⁻¹ s⁻¹	0.068 µg/mL	no binding (tested: 2-fold serially diluted from 2 g/mL)	0.037 µg/mL	0.036 µg/mL	0.043 µg/mL	0.109 µg/mL and 0.727 nM
B2	3.21 nM	0.00261 s⁻¹	813000 M⁻¹ s⁻¹	0.041 µg/mL	no binding (tested: 2-fold serially diluted from 2 g/mL)	0.034 µg/mL	0.034 µg/mL	0.036 µg/mL	0.116 µg/mL and 0.77 nM
B3	2.77 nM	0.00103 s⁻¹	373000 M⁻¹ s⁻¹	0.038 µg/mL	no binding (tested: 2-fold serially diluted from 2 g/mL)	0.041 µg/mL	0.041 µg/mL	0.041 µg/mL	0.156 µg/mL and 1.04 nM
